Test results as given in article PMC8971729 (Molecular Therapy Oncolytics, 2022).

Target: T1, human CXADR Fc chimera protein (CAR) (human, UniProt P78310)
T1 construct: also called coxsackievirus and adenovirus receptor; source: bought: R&D Systems
T1 sequence: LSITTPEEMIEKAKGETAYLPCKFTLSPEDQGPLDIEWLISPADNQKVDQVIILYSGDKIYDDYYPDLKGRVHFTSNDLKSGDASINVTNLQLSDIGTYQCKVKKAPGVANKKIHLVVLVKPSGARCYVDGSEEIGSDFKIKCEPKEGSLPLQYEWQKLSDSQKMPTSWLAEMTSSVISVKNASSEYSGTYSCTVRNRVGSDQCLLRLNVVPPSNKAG
Assay: SPR; BIAcore 3000; DSG2-Fc, CAR-Fc and CD46-His (approximately 500 RU) coupled to a CM5 chip; knob protein injected (178 uM, 5x 1:3 dilutions; single-cycle kinetics from 200 uM); 30 uL/min, PBS, 25 °C; equilibrium KD assuming 1:1 Langmuir binding
Details: both partners purified

B1: HAdV-C5 fiber knob protein (domain or fragment)
chain: KNNDKLTLWTTPAPSPNCRLNAEKDAKLTLVLTKCGSQILATVSVLAVKGSLAPISGTVQSAHLIIRFDENGVLLNNSFLDPEYWNFRNGDLTEGTAYTNAVGFMPNLSAYPKSHGKTAKSNIVSQVYLNGDKTKPVTLTITLNGTQETGDTTPSAYSMSFSWDWSGHNYINEIFATSSYTFSYIAQE
notes: source: supplemental methods
How did the Kd turn out when B1 was run?
Its Kd is 0.76 nM.
